Results as given in US20090149389A1 (PURDUE RESEARCH FOUNDATION, published 2009).

B1: FAKLAARLYRKALARQLGVAA (peptide)
peptide: FAKLAARLYRKALARQLGVAA
B2: KAFAKLAARLYRKALARQLGVAA (peptide)
peptide: KAFAKLAARLYRKALARQLGVAA

How the values were obtained:
Assay in all cases: cell-based or functional assay
Abl (h) = Abl (h) (human (h), UniProt P00519 27-1130, limits assumed)
AMPK (r) = AMPK (r) (rat (r), UniProt Q09137 1-552, limits assumed)
CaMKI (h) = CaMKI (h) (human (h), UniProt Q14012 1-370, limits assumed)
CDKI/cyclinB (h) = CDKI/cyclinB (h) (human (h), UniProt P06493 1-297)
cKit (h) = cKit (h) (human (h), UniProt P10721 544-976, limits assumed)
Chain of cKit (h) (P10721 544-976 limits assumed): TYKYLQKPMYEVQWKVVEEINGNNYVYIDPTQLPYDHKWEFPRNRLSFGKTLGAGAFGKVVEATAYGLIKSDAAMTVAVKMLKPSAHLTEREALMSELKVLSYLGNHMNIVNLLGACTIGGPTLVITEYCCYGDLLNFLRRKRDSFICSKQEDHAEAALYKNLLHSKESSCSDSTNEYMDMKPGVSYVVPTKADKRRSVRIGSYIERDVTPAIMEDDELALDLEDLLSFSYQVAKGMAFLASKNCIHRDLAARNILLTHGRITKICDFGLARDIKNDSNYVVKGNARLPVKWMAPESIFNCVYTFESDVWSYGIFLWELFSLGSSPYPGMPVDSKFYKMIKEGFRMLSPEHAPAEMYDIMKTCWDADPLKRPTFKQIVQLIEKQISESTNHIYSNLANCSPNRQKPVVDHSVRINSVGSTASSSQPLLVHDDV

FGFR1 (h) = FGFR1 (h) (human (h), UniProt P11362 456-765, limits assumed)
Chain of FGFR1 (h) (P11362 456-765 limits assumed): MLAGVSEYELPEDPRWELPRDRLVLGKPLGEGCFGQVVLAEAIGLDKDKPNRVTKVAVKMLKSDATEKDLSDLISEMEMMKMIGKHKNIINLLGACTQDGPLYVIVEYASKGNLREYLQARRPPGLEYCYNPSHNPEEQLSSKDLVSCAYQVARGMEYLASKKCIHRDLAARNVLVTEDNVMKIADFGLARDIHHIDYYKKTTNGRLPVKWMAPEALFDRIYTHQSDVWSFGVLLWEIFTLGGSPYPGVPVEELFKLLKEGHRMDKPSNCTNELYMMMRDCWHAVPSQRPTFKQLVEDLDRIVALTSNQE

Flt3 (h) = target: T1, Flt3 (h) (human (h), UniProt P36888 564-993, limits assumed)
T1 sequence (looked up): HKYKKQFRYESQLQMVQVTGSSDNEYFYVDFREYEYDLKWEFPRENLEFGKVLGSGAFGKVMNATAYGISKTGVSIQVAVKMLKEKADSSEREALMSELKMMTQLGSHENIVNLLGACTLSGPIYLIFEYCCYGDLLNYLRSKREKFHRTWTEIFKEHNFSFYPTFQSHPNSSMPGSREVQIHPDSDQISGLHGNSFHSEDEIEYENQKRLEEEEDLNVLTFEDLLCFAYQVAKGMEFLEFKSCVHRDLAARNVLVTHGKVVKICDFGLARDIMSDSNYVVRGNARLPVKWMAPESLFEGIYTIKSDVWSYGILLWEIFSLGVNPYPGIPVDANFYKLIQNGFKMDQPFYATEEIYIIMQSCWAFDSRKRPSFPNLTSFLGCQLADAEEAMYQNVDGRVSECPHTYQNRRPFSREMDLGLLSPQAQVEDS

JAK3 (h) = JAK3 (h) (human (h), UniProt P52333 781-1124, limits assumed)
Chain of JAK3 (h) (P52333 781-1124 limits assumed): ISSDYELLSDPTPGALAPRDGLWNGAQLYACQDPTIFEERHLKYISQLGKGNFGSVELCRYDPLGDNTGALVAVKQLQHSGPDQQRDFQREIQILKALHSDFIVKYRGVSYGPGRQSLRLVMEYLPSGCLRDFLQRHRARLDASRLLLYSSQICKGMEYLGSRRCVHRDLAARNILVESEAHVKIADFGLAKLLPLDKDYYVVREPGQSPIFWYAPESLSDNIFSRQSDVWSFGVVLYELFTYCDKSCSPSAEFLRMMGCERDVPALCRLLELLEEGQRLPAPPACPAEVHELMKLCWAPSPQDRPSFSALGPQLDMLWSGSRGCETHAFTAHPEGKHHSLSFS

MAPKI (h) = MAPKI (h) (human (h), UniProt P28482 1-360, limits assumed)
Chain of MAPKI (h) (P28482 whole entry): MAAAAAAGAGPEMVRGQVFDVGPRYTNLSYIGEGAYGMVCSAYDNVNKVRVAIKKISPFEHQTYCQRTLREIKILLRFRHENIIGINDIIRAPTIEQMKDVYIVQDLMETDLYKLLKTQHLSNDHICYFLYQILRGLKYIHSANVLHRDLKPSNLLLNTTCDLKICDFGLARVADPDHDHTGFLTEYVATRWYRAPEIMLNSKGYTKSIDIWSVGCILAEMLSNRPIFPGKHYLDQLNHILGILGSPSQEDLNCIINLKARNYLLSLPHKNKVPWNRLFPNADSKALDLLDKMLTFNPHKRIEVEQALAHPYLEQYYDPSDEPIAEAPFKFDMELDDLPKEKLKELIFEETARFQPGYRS

MKK6 (h) = target: T2, MKK6 (h) (human (h), UniProt P52564 1-334, limits assumed)
T2 sequence (looked up): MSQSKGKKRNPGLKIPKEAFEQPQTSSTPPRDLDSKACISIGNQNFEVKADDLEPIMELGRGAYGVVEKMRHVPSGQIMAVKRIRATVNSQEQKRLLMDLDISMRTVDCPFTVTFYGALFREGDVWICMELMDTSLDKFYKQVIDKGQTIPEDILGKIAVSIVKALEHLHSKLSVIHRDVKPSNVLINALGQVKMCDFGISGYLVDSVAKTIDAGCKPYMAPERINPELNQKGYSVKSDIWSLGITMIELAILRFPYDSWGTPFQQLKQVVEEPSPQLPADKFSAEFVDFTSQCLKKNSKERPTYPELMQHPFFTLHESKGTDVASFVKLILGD

MSK2 (h) = MSK2 (h) (human (h), UniProt O75676 1-772, limits assumed)
Chain of MSK2 (h) (O75676 whole entry): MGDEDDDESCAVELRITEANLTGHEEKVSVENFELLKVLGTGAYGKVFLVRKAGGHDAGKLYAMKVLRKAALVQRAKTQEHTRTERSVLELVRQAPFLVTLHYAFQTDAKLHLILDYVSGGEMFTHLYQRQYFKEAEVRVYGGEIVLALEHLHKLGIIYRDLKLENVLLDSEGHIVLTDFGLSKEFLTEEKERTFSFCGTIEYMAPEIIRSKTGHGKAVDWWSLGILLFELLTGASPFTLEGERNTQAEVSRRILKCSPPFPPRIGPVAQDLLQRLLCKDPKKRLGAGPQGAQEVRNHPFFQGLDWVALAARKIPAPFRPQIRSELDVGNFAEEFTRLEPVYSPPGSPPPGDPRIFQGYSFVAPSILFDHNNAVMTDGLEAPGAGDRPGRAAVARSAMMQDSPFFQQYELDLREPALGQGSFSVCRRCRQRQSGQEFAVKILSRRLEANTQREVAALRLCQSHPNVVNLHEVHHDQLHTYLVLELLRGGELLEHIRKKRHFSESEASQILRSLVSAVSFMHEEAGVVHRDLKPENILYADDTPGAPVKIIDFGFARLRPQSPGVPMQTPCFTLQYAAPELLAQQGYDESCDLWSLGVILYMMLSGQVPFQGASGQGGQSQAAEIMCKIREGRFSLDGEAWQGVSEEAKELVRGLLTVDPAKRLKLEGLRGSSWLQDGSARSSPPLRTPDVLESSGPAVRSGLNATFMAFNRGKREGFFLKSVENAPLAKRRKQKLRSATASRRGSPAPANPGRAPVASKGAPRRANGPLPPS

Pim-1 (h) = Pim-1 (h) (human (h), UniProt P11309 1-313)
PKB β (h) = PKB β (h) (human (h), UniProt P31751 1-481, limits assumed)
Chain of PKB β (h) (P31751 whole entry): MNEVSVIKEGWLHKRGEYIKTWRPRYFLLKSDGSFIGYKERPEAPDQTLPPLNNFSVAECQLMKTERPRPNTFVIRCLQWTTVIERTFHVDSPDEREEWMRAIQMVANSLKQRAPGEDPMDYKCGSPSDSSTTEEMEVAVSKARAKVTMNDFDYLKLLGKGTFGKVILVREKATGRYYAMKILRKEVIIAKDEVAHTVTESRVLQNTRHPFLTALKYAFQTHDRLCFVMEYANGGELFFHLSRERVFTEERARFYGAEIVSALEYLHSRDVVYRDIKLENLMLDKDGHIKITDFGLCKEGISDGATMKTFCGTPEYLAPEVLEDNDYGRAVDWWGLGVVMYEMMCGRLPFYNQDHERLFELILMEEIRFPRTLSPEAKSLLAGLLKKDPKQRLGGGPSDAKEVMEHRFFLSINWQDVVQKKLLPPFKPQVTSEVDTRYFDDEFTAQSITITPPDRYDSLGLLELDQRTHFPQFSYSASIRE

CHK1 (h) = target: T3, CHK1 (h) (human (h), UniProt O14757 1-476)
T3 sequence (looked up): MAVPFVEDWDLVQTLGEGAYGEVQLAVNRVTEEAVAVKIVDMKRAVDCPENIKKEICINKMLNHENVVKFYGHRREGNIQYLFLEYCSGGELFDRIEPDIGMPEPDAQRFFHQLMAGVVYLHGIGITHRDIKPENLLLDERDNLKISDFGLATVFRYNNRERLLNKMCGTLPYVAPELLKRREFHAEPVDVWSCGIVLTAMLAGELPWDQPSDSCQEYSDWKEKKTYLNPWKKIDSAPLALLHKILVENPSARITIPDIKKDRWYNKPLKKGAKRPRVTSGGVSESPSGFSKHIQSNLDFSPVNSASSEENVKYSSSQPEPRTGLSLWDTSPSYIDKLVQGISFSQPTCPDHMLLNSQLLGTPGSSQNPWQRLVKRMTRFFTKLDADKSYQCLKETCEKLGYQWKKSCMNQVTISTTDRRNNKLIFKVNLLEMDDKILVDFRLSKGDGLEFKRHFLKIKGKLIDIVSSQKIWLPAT

CKIB (h) = CKIB (h) (human (h))
DYRK2 (h) = target: T4, DYRK2 (h) (human (h), UniProt Q92630 1-601, limits assumed)
T4 sequence (looked up): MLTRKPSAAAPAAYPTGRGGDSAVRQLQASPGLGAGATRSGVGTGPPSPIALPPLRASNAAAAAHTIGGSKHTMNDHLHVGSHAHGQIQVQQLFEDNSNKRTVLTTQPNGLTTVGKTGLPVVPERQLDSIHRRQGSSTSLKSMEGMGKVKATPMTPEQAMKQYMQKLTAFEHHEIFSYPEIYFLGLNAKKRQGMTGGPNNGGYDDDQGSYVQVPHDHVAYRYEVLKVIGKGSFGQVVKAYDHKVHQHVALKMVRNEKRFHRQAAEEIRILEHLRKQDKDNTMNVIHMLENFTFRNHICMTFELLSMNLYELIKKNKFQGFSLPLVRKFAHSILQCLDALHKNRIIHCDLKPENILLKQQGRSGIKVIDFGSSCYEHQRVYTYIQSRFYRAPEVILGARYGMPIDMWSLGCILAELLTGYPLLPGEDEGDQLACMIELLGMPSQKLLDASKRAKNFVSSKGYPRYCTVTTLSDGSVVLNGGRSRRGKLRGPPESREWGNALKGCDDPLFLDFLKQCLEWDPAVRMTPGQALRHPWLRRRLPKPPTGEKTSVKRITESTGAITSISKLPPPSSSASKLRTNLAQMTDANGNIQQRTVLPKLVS

JNK1α1 (h) = JNK1α1 (h) (human (h), UniProt P45983-2 1-384)
Chain of JNK1α1 (h) (P45983 other isoform, or with tags, fused parts or gaps limits assumed): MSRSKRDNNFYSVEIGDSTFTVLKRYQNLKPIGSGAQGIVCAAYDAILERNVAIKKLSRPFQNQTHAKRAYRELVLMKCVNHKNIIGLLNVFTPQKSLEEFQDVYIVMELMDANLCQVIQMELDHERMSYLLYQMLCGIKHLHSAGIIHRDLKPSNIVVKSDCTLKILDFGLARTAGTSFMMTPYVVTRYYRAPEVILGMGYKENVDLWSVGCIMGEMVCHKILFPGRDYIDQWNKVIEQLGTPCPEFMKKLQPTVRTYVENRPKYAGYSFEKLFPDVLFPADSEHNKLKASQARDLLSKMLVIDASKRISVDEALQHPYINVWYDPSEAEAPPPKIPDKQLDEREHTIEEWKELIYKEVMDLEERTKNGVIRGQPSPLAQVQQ

PDGFRβ (h) = PDGFRβ (h) (human (h), UniProt P09619 558-1106, limits assumed)
Chain of PDGFRβ (h) (P09619 558-1106 limits assumed): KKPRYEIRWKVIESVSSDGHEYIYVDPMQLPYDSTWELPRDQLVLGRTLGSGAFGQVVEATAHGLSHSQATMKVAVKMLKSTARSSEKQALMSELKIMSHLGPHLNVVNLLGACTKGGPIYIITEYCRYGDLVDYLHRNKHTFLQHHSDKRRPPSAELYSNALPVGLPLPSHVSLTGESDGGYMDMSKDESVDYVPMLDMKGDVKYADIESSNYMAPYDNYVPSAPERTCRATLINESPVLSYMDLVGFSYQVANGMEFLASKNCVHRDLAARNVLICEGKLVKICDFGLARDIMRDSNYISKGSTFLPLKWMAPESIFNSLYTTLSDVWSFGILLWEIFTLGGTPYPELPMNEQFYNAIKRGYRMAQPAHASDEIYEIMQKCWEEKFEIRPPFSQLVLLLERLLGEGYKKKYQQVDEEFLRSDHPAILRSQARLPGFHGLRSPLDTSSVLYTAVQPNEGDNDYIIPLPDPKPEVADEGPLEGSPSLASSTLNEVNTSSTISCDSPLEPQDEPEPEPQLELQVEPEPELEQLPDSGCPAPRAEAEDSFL

Chain of Abl (h) (P00519 27-1130 limits assumed): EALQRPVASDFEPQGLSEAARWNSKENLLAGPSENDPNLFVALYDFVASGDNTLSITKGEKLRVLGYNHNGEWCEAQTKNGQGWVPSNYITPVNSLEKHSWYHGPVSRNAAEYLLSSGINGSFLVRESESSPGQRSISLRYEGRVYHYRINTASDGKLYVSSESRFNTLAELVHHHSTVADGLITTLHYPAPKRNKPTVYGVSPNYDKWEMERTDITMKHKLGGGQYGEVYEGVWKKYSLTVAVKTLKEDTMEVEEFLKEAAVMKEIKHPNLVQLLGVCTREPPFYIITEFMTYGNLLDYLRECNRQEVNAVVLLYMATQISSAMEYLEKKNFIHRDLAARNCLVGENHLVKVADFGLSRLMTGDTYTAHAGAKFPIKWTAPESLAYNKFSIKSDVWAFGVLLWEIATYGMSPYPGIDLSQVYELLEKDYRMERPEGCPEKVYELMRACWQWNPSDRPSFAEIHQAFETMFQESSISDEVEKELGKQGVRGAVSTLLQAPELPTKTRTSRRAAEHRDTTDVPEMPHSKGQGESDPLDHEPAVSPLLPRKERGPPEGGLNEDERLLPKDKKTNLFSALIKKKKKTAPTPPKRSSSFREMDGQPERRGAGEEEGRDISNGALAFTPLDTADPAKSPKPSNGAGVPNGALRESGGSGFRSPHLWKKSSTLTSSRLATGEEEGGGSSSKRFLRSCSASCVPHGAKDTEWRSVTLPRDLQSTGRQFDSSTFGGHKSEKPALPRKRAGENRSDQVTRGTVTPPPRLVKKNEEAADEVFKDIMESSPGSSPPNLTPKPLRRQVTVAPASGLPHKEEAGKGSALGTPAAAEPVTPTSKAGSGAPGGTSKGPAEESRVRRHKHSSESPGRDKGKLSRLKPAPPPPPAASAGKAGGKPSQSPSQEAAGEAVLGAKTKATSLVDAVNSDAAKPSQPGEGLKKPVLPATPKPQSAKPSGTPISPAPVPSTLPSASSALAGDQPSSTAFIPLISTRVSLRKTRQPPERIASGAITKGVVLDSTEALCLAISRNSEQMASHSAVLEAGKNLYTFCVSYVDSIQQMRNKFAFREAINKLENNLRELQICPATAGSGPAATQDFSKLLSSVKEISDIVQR

| Binder | Profile-1 @ = 100 µm (kinase profiler assay) (Abl (h)) | Profile-1 @ = 100 µm (kinase profiler assay) (AMPK (r)) | Profile-1 @ = 100 µm (kinase profiler assay) (CaMKI (h)) | Profile-1 @ = 100 µm (kinase profiler assay) (CDKI/cyclinB (h)) | Profile-1 @ = 100 µm (kinase profiler assay) (cKit (h)) | Profile-1 @ = 100 µm (kinase profiler assay) (FGFR1 (h)) | Profile-1 @ = 100 µm (kinase profiler assay) (Flt3 (h)) | Profile-1 @ = 100 µm (kinase profiler assay) (JAK3 (h)) | Profile-1 @ = 100 µm (kinase profiler assay) (MAPKI (h)) | Profile-1 @ = 100 µm (kinase profiler assay) (MKK6 (h)) | Profile-1 @ = 100 µm (kinase profiler assay) (MSK2 (h)) | Profile-1 @ = 100 µm (kinase profiler assay) (Pim-1 (h)) | Profile-1 @ = 100 µm (kinase profiler assay) (PKB β (h)) | Profile-1 @ = 100 µm (kinase profiler assay) (CHK1 (h)) | Profile-1 @ = 100 µm (kinase profiler assay) (CKIB (h)) | Profile-1 @ = 100 µm (kinase profiler assay) (DYRK2 (h)) | Profile-1 @ = 100 µm (kinase profiler assay) (JNK1α1 (h)) | Profile-1 @ = 100 µm (kinase profiler assay) (PDGFRβ (h)) |
| --- | --- | --- | --- | --- | --- | --- | --- | --- | --- | --- | --- | --- | --- | --- | --- | --- | --- | --- |
| B1 | 41 | 101 | 0 | 36 | 42 | 22 | 14 | 102 | 104 | 42 | 24 | 1 | 16 | – | – | – | – | – |
| B2 | – | – | – | – | – | – | – | – | – | – | – | – | – | 68 | 97 | -10 | 92 | 66 |
